# Measurements: the supplement of paper PMC10567573
# B1: WDFY1 (parent)
# chain: LLIPKEDGVITASEDRTIRVWLKR
# Variants of: B1
# Assay: protein stability index of a GFP-peptide fusion (GPS, HEK-293T) (PSI 1-6); higher = more stable
# Conditions: c terminus: a fixed tail appended
# 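Further: lentivirally expressed fusions sorted by FACS into six bins by GFP to DsRed ratio, PSI derived from sequencing read proportions per bin multiplied by bin number.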
row,Variant,protein stability index
1,LLIPKEDGVITASEDRTIRVWKKR [L22K],2.91
2,LLIPKEDGVITASEDRTIRVWRKR [L22R],3.11
3,LLIPKEDGVITASEDRTIRVWHKR [L22H],2.75
4,LLIPKEDGVITASEDRTIRVWFKR [L22F],2.15
5,LLIPKEDGVITASEDRTIRVWCKR [L22C],2.48
6,LLIPKEDGVITASEDRTIRVWVKR [L22V],2.17
7,LLIPKEDGVITASEDRTIRVWNKR [L22N],2.77
8,LLIPKEDGVITASEDRTIRVWTKR [L22T],2.54
9,LLIPKEDGVITASEDRTIRVWPKR [L22P],4.22
10,LLIPKEDGVITASEDRTIRVWEKR [L22E],3.61
11,LLIPKEDGVITASEDRTIRVWSKR [L22S],2.79
12,LLIPKEDGVITASEDRTIRVWMKR [L22M],3.01
13,LLIPKEDGVITASEDRTIRVWYKR [L22Y],2.83
14,LLIPKEDGVITASEDRTIRVWIKR [L22I],2.56
15,LLIPKEDGVITASEDRTIRVFLKR [W21F],3.61
16,LLIPKEDGVITASEDRTIRVDLKR [W21D],3.87
17,LLIPKEDGVITASEDRTIRVVLKR [W21V],3.07
18,LLIPKEDGVITASEDRTIRVNLKR [W21N],3.33
19,LLIPKEDGVITASEDRTIRVMLKR [W21M],2.06
20,LLIPKEDGVITASEDRTIRVQLKR [W21Q],4.25
21,LLIPKEDGVITASEDRTIRVCLKR [W21C],3.44
22,LLIPKEDGVITASEDRTIRVELKR [W21E],3.37
23,LLIPKEDGVITASEDRTIRVSLKR [W21S],2.8
24,LLIPKEDGVITASEDRTIRVLLKR [W21L],2.78

row,Variant,protein stability index
1,LLIPKEDGVITASEDRTIRVHLKR [W21H],3.17
2,LLIPKEDGVITASEDRTIRVTLKR [W21T],2.46
3,LLIPKEDGVITASEDRTIRVRLKR [W21R],2.77
4,LLIPKEDGVITASEDRTIRVALKR [W21A],3.07
5,LLIPKEDGVITASEDRTIRVILKR [W21I],3.04
6,LLIPKEDGVITASEDDTIRVWLKR [R16D],2.6
7,LLIPKEDGVITASEDTTIRVWLKR [R16T],1.65
8,LLIPKEDGVITASEDGTIRVWLKR [R16G],1.89
9,LLIPKEDGVITASEDKTIRVWLKR [R16K],1.74
10,LLIPKEDGVITASEDSTIRVWLKR [R16S],1.7
11,LLIPKEDGVITASEDATIRVWLKR [R16A],1.92
12,LLIPKEDGVITASEDETIRVWLKR [R16E],2.81
13,LLIPKEDGVITASEDITIRVWLKR [R16I],1.43
14,LLIPKEDGVITASEDNTIRVWLKR [R16N],3.22
15,LLIPKEDGVITASEDYTIRVWLKR [R16Y],1.41
16,LLIPKEDGVITASEDLTIRVWLKR [R16L],2.22
17,LLIPKEDGVITASEDCTIRVWLKR [R16C],1.6
18,LLIPKEDGVITASEDVTIRVWLKR [R16V],1.95
19,LLIPKEDGVITASEDPTIRVWLKR [R16P],2.37
20,LLIPKEDGVITASEDQTIRVWLKR [R16Q],2.2
21,LLIPKEDGVITASEDHTIRVWLKR [R16H],1.6
22,LLIPKEDGVITASEDMTIRVWLKR [R16M],2.19
23,LLIPKEDGVITASECRTIRVWLKR [D15C],1.1
24,LLIPKEDGVITASEKRTIRVWLKR [D15K],1.41

row,Variant,protein stability index
1,LLIPKEDGVITASEVRTIRVWLKR [D15V],1.37
2,LLIPKEDGVITASEYRTIRVWLKR [D15Y],2.97
3,LLIPKEDGVITASEGRTIRVWLKR [D15G],2.09
4,LLIPKEDGVITASETRTIRVWLKR [D15T],1.19
5,LLIPKEDGVITASEPRTIRVWLKR [D15P],2.17
6,LLIPKEDGVITASEERTIRVWLKR [D15E],1.66
7,LLIPKEDGVITASEMRTIRVWLKR [D15M],1.55
8,LLIPKEDGVITASEQRTIRVWLKR [D15Q],2.32
9,LLIPKEDGVITASYDRTIRVWLKR [E14Y],1.32
10,LLIPKEDGVITASEDRRIRVWLKR [T17R],2.29
11,LLIPKEDGVITASEDRVIRVWLKR [T17V],1.71
12,LLIPKEDGVITASEDRYIRVWLKR [T17Y],1.33
13,LLIPKEDGVITASEDRHIRVWLKR [T17H],3.16
14,LLIPKEDGVITASEDRMIRVWLKR [T17M],1.73
15,LLIPKEDGVITASEDRQIRVWLKR [T17Q],2.02
16,LLIPKEDGVITASEDRNIRVWLKR [T17N],2.77
17,LLIPKEDGVITASEDRDIRVWLKR [T17D],1.94
18,LLIPKEDGVITASEDREIRVWLKR [T17E],1.81
19,LLIPKEDGVITASEDRLIRVWLKR [T17L],1.82
20,LLIPKEDGVITASEDRSIRVWLKR [T17S],1.8
21,LLIPKEDGVITASEDRPIRVWLKR [T17P],2.51
22,LLIPKEDGVITASEDRGIRVWLKR [T17G],1.39
23,LLIPKEDGVITASEDRFIRVWLKR [T17F],2.12
24,LLIPKEDGVITASEDRCIRVWLKR [T17C],2.1

row,Variant,protein stability index
1,LLIPKEDGVITASEDRWIRVWLKR [T17W],2.16
2,LLIPKEDGVITASEDRAIRVWLKR [T17A],2.74
3,LLIPKEDGVITASEDRIIRVWLKR [T17I],1.61
4,LLIPKEDGVITASEDRTIRVWLDR [K23D],2.2
5,LLIPKEDGVITASEDRTIRVWLFR [K23F],3.36
6,LLIPKEDGVITASEDRTIRVWLQR [K23Q],1.4
7,LLIPKEDGVITASEDRTIRVWLTR [K23T],2.62
8,LLIPKEDGVITASEDRTIRVWLHR [K23H],1.7
9,LLIPKEDGVITASEDRTIRVWLRR [K23R],2.74
10,LLIPKEDGVITASEDRTIRVWLIR [K23I],2.1
11,LLIPKEDGVITASEDRTIRVWLMR [K23M],1.76
12,LLIPKEDGVITASEDRTIRVWLAR [K23A],1.79
13,LLIPKEDGVITASEDRTIRVWLWR [K23W],2.13
14,LLIPKEDGVITASEDRTIRVWLVR [K23V],2.28
15,LLIPKEDGVITASEDRTIRVWLSR [K23S],2.1
16,LLIPKEDGVITASEDRTIRVWLER [K23E],2.9
17,LLIPKEDGVITASEDRTIRVWLLR [K23L],2.44
18,LLIPKEDGVITASEDRTIRVWLGR [K23G],1.83
19,LLIPKEDGVITASEDRTIRVWLPR [K23P],2.15
20,LLIPKEDGVITASEDRTIRVWLNR [K23N],2.63
21,LLIPKEDGVITASEDRTIRVWLCR [K23C],2.24
22,LLIPKEDGVITASEDRTIGVWLKR [R19G],1.8
